To fix the notation:
B1: ATRX_(1,265–1,285), α-helix frame only (αDID), wild type peptide [human] / DAXX helical bundle (DHB) domain of death domain-associated protein (DAXX), aa 55-144 [not stated] (parent complex)
chain 1: NDPENRIAKKMLLEEIKANLS
chain 2: GKKCYKLENEKLFEEFLELCKMQTADHPEVVPFLYNRQQRAHSLFLASAEFCNILSRVLSRARSRPAKLYVYINELCTVLKAHSAKKKLN

In the assay the parent is B1. Nature of the assay: ITC. Background: In ITC the heat of successive injections is recorded.
For orientation: Kd means a measure of binding affinity in units of concentration. Turning to chain 1 NDPENRIAAKMLLEEIKANLS [chain 1 K9A], the Kd worked out at 2.3 µM.

As to chain 1 NDPQNRIAKKMLLEEIKANLS [chain 1 E4Q], the Kd was found to be 5.6 µM. On to chain 1 NNPENRIAKKMLLEEIKANLS [chain 1 D2N], for which the Kd came out at 7 µM. With chain 1 NDPENRIAKKMLLEQIKANLS [chain 1 E15Q], the Kd is 3.2 µM.

For the origin of these results see paper PMC5636754, “Structural and biochemical characterization of DAXX-ATRX interaction” (Protein & Cell, 2017).
